Test results: patent US20250026827A1 (Alector, published 2025)

T1: mouse SIRPα D1-Fc (mouse, UniProt P97797 32-150, limits assumed)
T1 construct: domain: D1
T1 sequence (looked up): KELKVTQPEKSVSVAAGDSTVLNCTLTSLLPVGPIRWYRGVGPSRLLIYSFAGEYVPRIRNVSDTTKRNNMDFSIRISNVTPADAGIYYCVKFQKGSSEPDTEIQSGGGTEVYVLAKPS

T2: mouse SIRPβ1 on CHO cells (mouse)
T2 construct: Whole entry
T2 chain: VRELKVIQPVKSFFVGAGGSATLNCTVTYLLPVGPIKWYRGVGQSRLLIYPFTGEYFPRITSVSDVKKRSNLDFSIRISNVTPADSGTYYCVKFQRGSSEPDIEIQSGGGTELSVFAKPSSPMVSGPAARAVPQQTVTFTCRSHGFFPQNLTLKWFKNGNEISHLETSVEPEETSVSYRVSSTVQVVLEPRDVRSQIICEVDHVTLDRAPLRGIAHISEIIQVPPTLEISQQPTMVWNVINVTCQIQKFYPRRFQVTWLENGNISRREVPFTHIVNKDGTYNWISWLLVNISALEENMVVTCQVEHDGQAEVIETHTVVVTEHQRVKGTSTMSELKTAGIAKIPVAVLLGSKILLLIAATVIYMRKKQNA

T3: mouse SIRPα on cells (mouse, UniProt P97797 32-513)
T3 construct: whole, on cells
T3 sequence (looked up): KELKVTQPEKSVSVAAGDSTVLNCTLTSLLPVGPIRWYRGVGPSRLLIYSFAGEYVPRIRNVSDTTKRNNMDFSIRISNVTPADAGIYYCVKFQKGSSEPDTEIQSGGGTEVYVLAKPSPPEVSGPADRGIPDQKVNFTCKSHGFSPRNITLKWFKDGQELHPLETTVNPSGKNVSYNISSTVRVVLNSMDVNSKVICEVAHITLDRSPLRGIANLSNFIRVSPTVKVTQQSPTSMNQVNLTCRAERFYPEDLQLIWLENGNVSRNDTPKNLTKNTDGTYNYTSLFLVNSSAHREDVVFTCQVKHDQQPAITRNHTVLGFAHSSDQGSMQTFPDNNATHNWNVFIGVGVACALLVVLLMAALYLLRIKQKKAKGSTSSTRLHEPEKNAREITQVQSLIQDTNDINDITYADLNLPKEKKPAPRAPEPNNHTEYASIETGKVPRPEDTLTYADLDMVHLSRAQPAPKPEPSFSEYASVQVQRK


How the values were obtained:
[1] = biological target: T4, human SIRPα domain 1 (D1) Fc fusion (human, UniProt P78324 32-149); assay: Octet
T4 construct: also called human SIRPα D1-Fc; Human SIRPα Fc; not shown: C-terminal human IgG1 Fc

mouse SIRPα D1-Fc = biological target: T1, mouse SIRPα D1-Fc; assay: Octet
human SIRPα on cells [2] = biological target: T5, human SIRPα on cells (human, UniProt P78324 31-504); assay: flow cytometry;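 on FOB: antibodies tested at 1 µg/ml for 30 min on ice against receptor-expressing cells, detected with a PE-labelled secondary antibody, read as mean fluorescence intensity relative to background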
T5 construct: Whole entry

[3] = biological target: T2, mouse SIRPβ1 on CHO cells; assay: flow cytometry;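 on FOB: antibodies tested at 1 µg/ml for 30 min on ice against receptor-expressing cells, detected with a PE-labelled secondary antibody, read as mean fluorescence intensity relative to background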
mouse SIRPα on cells [4] = biological target: T3, mouse SIRPα on cells; assay: flow cytometry;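 on FOB: antibodies tested at 1 µg/ml for 30 min on ice against receptor-expressing cells, detected with a PE-labelled secondary antibody, read as mean fluorescence intensity relative to background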
[5] = biological target: T6, human SIRPβ1 isoform 1 on cells (human, UniProt O00241 30-398); assay: flow cytometry;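 further: antibodies tested at 1 µg/ml for 30 min on ice against receptor-expressing cells, detected with a PE-labelled secondary antibody, read as mean fluorescence intensity relative to background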
T6 construct: On CHO cells (low level), on BWZ/BW5147.G.1.4 cells (reporter cells co-express human DAP12) or on primary human myeloid cells; also called huSIRPβ1; BWZ-huSIRPβ1

human SIRPα on cells [6] = biological target: T5, human SIRPα on cells; assay: flow cytometry; remark: listed apart in the source
[7] = biological target: T2, mouse SIRPβ1 on CHO cells; assay: flow cytometry
mouse SIRPα on cells [8] = biological target: T3, mouse SIRPα on cells; assay: flow cytometry; remark: listed apart in the source
[9] = biological target: T7, human SIRPβ1 domain 1 (D1) Fc fusion (human, UniProt O00241 30-148); assay: Octet, IgG avid
T7 construct: Made in HEK293/T cells with a heterologous signal peptide; also called Human SIRPβ1 D1-Fc; Human SIRPβ1-Fc; not shown: C-terminal human IgG1 Fc
T7 sequence (O00241 30-148 limits assumed): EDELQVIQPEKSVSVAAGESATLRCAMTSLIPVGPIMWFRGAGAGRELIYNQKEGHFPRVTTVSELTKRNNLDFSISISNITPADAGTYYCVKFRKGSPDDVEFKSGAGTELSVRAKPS

T6 sequence (O00241 30-398): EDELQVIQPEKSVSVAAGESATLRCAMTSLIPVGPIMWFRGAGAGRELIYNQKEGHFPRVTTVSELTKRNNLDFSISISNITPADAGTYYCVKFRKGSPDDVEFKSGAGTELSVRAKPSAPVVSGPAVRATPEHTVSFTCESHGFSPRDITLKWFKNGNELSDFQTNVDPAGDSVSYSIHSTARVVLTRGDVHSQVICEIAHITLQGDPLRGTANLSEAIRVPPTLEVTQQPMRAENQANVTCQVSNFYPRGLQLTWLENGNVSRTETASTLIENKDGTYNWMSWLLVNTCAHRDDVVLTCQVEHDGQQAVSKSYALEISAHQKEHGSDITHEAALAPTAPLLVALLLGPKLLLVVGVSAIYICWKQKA

| binding result [1] | binding result (mouse SIRPα D1-Fc) | binding result (human SIRPα on cells [2]) | binding result [3] | binding result (mouse SIRPα on cells [4]) | FOB [5] [fold over background] | FOB (human SIRPα on cells [6]) [fold over background] | FOB [7] [fold over background] | FOB (mouse SIRPα on cells [8]) [fold over background] | Kd [9] [nM] | Binder |
| --- | --- | --- | --- | --- | --- | --- | --- | --- | --- | --- |
| no binding (tested: 100 nM) | no binding (tested: 100 nM) | no binding (tested: 1 ug/ml) | no binding (tested: 1 ug/ml) | no binding (tested: 1 ug/ml) | 2 | 2.1 | 1.3 | 1.2 | 6.17 | SB-26 (antibody, V domains shown, IgG) VH: QVQLVQSGAEVKKPGSSVKVSCKASGGTFSSYAISWVRQAPGQGLEWMGGIIPIFGTANYAQKFQGRVTITADESTSTAYMELSSLRSEDTAVYYCARDGSAGRQEHGMDVWGQGTTVTVSS VL: not shown |
| no binding (tested: 100 nM) | no binding (tested: 100 nM) | no binding (tested: 1 ug/ml) | no binding (tested: 1 ug/ml) | no binding (tested: 1 ug/ml) | 1.4 | 2.2 | 1.3 | 1.4 | 9.23 | SB-33 (antibody, V domains shown, IgG) VH: EVQLVESGGGLVQPGGSLRLSCAASGFTVSSNYMSWVRQAPGKGLEWVSVIYSGGSTYYADSVKGRFTISRDNSKNTLYLQMNSLRAEDTAVYYCARGQYTGSLDVWGQGTMVTVSS VL: not shown |
| no binding (tested: 100 nM) | no binding (tested: 100 nM) | no binding (tested: 1 ug/ml) | no binding (tested: 1 ug/ml) | no binding (tested: 1 ug/ml) | 3.1 | 1.8 | 1.4 | 1 | 3.75 | SB-31 (antibody, V domains shown, IgG) VH: QVQLVQSGAEVKKPGASVKVSCKASGYTFTSYYMHWVRQAPGQGLEWMGIINPGGGSTSYAQKFQGRVTMTRDTSTSTVYMELSSLRSEDTAVYYCAREGLYSSGWYIDVWGQGTLVTVSS VL: DIQMTQSPSSVSASVGDRVTITCRASQGISSWLAWYQQKPGKAPKLLIYAASSLQSGVPSRFSGSGSGTDFTLTISSLQPEDFATYYCQQAVSHPFTFGGGTKVEIK |
| no binding (tested: 100 nM) | no binding (tested: 100 nM) | no binding (tested: 1 ug/ml) | no binding (tested: 1 ug/ml) | no binding (tested: 1 ug/ml) | 6.3 | 2.3 | 1.2 | 0.9 | 3.69 | SB-11 (antibody, V domains shown, IgG) VH: QVQLVQSGAEVKKPGSSVKVSCKASGGTFSNYAISWVRQAPGQGLEWMGGIIPIFGTANYAQKFQGRVTITADESTSTAYMELSSLRSEDTAVYYCARPVDSSSYSLGYYYGMDVWGKGTTVTVSS VL: not shown |
| no binding (tested: 100 nM) | no binding (tested: 100 nM) | no binding (tested: 1 ug/ml) | no binding (tested: 1 ug/ml) | no binding (tested: 1 ug/ml) | 2.8 | 2.5 | 1.3 | 1.6 | 3.32 | SB-17 (antibody, V domains shown, IgG) VH: QVQLVQSGAEVKKPGASVKVSCKASGYTFTSYGISWVRQAPGQGLEWMGWISAYNGNTNYAQKLQGRVTMTTDTSTSTAYMELRSLRSDDTAVYYCARGPLLYGDYHVRYGMDVWGQGTTVTVSS VL: not shown |
| no binding (tested: 100 nM) | no binding (tested: 100 nM) | no binding (tested: 1 ug/ml) | no binding (tested: 1 ug/ml) | no binding (tested: 1 ug/ml) | 1.8 | 2.1 | 1 | 0.8 | 3.66 | SB-9 (antibody, V domains shown, IgG) VH: QVQLVQSGAEVKKPGASVKVSCKASGYTFTSYGIHWVRQAPGQGLEWMGWISAYNGNTNYAQKLQGRVTMTTDTSTSTAYMELRSLRSDDTAVYYCARDGLHYGDYIVYYGMDVWGQGTTVTVSS VL: not shown |
| no binding (tested: 100 nM) | no binding (tested: 100 nM) | no binding (tested: 1 ug/ml) | no binding (tested: 1 ug/ml) | no binding (tested: 1 ug/ml) | 1.8 | 2.2 | 1.3 | 0.9 | 7.41 | SB-19 (antibody, V domains shown, IgG) VH: QVQLVQSGAEVKKPGSSVKVSCKASGGTFSSYAISWVRQAPGQGLEWMGGIIPIFGTANYAQKFQGRVTITADESTSTAYMELSSLRSEDTAVYYCARDGGGGYAYEYFQHWGQGTLVTVSS VL: not shown |
| no binding (tested: 100 nM) | no binding (tested: 100 nM) | no binding (tested: 1 ug/ml) | no binding (tested: 1 ug/ml) | no binding (tested: 1 ug/ml) | 1.8 | 1.9 | 1.2 | 0.9 | 10.7 | SB-29 (antibody, V domains shown, IgG) VH: QVQLVQSGAEVKKPGSSVKVSCKASGGTFSSYAISWVRQAPGQGLEWMGSIIPIFGTANYAQKFQGRVTITADESTSTAYMELSSLRSEDTAVYYCARAPYGSSSGYGYFDLWGRGTLVTVSS VL: not shown |
| no binding (tested: 100 nM) | no binding (tested: 100 nM) | no binding (tested: 1 ug/ml) | no binding (tested: 1 ug/ml) | no binding (tested: 1 ug/ml) | 1.9 | 2 | 1.3 | 1.2 | 5.86 | SB-21 (antibody, V domains shown, IgG) VH: QVQLVQSGAEVKKPGASVKVSCKASGYTFTSNGISWVRQAPGQGLEWMGWISAYNGNTNYAQKLQGRVTMTTDTSTSTAYMELRSLRSDDTAVYYCARVGNMDQEYFDLWGRGTLVTVSS VL: not shown |
| no binding (tested: 100 nM) | no binding (tested: 100 nM) | no binding (tested: 1 ug/ml) | no binding (tested: 1 ug/ml) | no binding (tested: 1 ug/ml) | 8 | 2.2 | 1.3 | 1.4 | 3.45 | SB-15 (antibody, V domains shown, IgG) VH: QLQLQESGPGLVKPSETLSLTCTVSGGSISSNSYYWGWIRQPPGKGLEWIGSIYYSGSTYYNPSLKSRVTISVDTSKNQFSLKLSSVTAADTAVYYCAREVGAPPSYPFDIWGQGTMVTVSS VL: not shown |
| no binding (tested: 100 nM) | no binding (tested: 100 nM) | no binding (tested: 1 ug/ml) | no binding (tested: 1 ug/ml) | no binding (tested: 1 ug/ml) | 4.1 | 2.1 | 1.2 | 1 | 5.59 | SB-28 (antibody, V domains shown, IgG) VH: QLQLQESGPGLVKPSETLSLTCTVSGGSISSSSYYWGWIRQPPGKGLEWIGSISYSGSTYYNPSLKSRVTISVDTSKNQFSLKLSSVTAADTAVYYCARDPRDYSSGSSGGGWGYFDLWGRGTLVTVSS VL: EIVLTQSPGTLSLSPGERATLSCRASQSVSSSYLAWYQQKPGQAPRLLIYGASSRATGIPDRFSGSGSGTDFTLTISRLEPEDFAVYYCQQDGNFPLTFGGGTKVEIK |
